# Experimental data: paper doi:10.1101/2025.07.23.666473
# Biological target: NaV1.5 (mouse (endogenous in heart)) (UniProt Q9JJV9)
# Experiment: co-IP
# UniProt Q9JJV9, sequence (Q9JJV9 whole entry): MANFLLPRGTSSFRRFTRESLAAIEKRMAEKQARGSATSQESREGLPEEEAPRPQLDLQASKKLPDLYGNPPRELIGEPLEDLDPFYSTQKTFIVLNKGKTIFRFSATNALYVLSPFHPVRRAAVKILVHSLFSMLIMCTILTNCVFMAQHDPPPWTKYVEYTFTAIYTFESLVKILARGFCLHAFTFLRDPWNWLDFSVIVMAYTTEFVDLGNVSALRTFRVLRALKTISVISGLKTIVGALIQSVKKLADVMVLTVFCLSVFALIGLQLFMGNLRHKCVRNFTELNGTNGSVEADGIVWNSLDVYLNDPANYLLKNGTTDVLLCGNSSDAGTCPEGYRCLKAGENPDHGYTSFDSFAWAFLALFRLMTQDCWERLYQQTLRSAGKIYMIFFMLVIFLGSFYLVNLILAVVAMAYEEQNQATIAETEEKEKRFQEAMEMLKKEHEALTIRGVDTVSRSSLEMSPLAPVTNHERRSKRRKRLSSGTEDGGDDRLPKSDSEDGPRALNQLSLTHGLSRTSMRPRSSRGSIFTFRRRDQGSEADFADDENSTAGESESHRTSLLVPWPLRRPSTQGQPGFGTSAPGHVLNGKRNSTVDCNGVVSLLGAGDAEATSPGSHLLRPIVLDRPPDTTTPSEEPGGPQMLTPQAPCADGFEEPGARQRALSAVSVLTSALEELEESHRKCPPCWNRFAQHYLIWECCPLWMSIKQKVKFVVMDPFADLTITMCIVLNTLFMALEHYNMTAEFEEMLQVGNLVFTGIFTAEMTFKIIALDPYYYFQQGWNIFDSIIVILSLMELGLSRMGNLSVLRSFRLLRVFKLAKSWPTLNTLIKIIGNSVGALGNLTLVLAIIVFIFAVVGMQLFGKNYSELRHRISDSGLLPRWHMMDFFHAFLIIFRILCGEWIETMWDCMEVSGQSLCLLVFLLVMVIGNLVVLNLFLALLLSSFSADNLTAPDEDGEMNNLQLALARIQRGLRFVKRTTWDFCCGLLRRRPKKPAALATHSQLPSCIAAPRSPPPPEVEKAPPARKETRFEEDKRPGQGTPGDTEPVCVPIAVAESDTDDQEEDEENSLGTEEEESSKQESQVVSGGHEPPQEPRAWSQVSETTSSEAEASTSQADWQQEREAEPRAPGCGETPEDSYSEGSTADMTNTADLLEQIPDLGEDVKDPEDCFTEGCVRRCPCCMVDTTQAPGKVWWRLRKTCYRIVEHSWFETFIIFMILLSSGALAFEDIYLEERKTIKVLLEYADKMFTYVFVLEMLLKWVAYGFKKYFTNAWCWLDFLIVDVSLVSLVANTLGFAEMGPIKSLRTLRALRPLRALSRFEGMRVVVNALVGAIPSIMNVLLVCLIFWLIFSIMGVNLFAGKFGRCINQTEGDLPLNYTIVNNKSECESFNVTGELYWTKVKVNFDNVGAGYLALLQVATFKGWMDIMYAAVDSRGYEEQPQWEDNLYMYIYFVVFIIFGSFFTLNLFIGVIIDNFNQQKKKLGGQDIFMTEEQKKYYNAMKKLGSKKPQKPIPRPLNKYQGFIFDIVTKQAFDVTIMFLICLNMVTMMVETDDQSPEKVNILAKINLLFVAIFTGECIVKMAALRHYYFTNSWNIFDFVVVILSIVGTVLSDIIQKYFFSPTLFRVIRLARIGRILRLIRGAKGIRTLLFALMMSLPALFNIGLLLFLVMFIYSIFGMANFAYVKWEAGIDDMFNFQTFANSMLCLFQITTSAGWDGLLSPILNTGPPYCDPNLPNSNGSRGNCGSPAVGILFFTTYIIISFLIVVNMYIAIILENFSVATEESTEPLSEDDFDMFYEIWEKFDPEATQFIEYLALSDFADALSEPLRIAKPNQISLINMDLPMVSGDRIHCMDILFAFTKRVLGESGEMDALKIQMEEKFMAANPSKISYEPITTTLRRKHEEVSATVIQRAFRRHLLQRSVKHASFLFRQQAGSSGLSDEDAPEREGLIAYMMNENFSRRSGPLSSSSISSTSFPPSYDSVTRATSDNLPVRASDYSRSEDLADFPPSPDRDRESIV
substance,measurement,value
FGF13 (from UniProt P70377 1-245) (natural protein),percent of total FGF13 depleted with NaV1.5 (in complex),35%
